Laboratory results: US20220040297A1 (Chugai, published 2022)
Positions count from the first letter of the chain named. Names may count otherwise. Ends that are not written are not given here.

Columns and labels:
[1] = target: T1, biotin-labeled human CD154 (human, UniProt P29965 113-261, limits assumed, biotin-labeled); experiment: ECL competition: biotinylated CD154, CD3ε homodimer as competitor [2]
T1 construct: also called biotinylated human CD154
T1 sequence (looked up): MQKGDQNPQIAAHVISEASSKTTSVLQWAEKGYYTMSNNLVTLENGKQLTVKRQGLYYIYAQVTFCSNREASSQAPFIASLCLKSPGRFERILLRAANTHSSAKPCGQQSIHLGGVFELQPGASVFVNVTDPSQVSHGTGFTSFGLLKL

[2] = target: T1, biotin-labeled human CD154; experiment: ECL competition: biotinylated CD154, CD3ε homodimer as competitor [1]
[3] = target: T2, CD3ε homodimer protein (human, UniProt P07766 23-126, limits assumed); experiment: SPR (Biacore); CD3ε homodimer immobilized, one-arm antibody as analyte
T2 construct: also called human CD3ε homodimer protein; CD3e homodimer

[4] = target: T3, biotin-labeled CD3ε peptide (also: biotin-labeled, site not given here); experiment: ECL; CD3 peptide as antigen, ratio to the no-antigen well
T3 construct: also called CD3 peptide; biotinylated CD3ε peptide
T3 peptide: QDGNEEMGGITQTPY

[5] = target: T4, integrin αvβ3 (R&D Systems, Inc.) (human, UniProt P06756 31-992; P05106 27-718); experiment: ECL; integrin αvβ3 value without against with CD3ε homodimer protein (competitor)
[6] = target: T5, human IgA-Fc with AviTag, biotinylated (human, UniProt P01876 123-333, limits assumed, biotinylated at the C-terminal AviTag sequence); experiment: ECL; biotinylated hIgA with CD3ε homodimer protein (competitor), ratio to the no-antigen well
T5 construct: also called hIgA; biotinylated human IgA

[7] = target: T4, integrin αvβ3 (R&D Systems, Inc.); experiment: ECL; integrin αvβ3 on plate with CD3ε homodimer protein (competitor), ratio to the integrin-free well
[8] = target: T4, integrin αvβ3 (R&D Systems, Inc.); experiment: ECL; integrin αvβ3 on plate, ratio to the integrin-free well
[9] = target: T5, human IgA-Fc with AviTag, biotinylated; experiment: ECL; biotinylated hIgA with integrin αvβ3 (competitor), ratio to the no-antigen well
[10] = target: T5, human IgA-Fc with AviTag, biotinylated; experiment: ECL; hIgA signal without against with CD3ε homodimer protein (competitor)
[11] = target: T5, human IgA-Fc with AviTag, biotinylated; experiment: ECL; hIgA value without against with integrin αvβ3 (competitor)
[12] = target: T5, human IgA-Fc with AviTag, biotinylated; experiment: ECL; biotinylated hIgA, ratio to the no-antigen well
[13] = target: T5, human IgA-Fc with AviTag, biotinylated; experiment: as above; remark: listed apart in the source

B1: 154R5A02#1 (antibody, human IgG1, kappa, L234A L235A, N297A)
heavy: QVQLVESGGGLVQPGRSLRLSCAASGFTFSNAWMHWVRQAPGKGLEWVAQIKDRGNNYNTYYAPSVKGRFTISRDDSKNSIYLQMNSLKTEDTAVYYCRYVHYGSYFFSGSSFGVDIWGQGTTVTVSSASTKGPSVFPLAPSSKSTSGGTAALGCLVKDYFPEPVTVSWNSGALTSGVHTFPAVLQSSGLYSLSSVVTVPSSSLGTQTYICNVNHKPSNTKVDKKVEPKSCDKTHTCPPCPAPEAAGGPSVFLFPPKPKDTLMISRTPEVTCVVVDVSHEDPEVKFNWYVDGVEVHNAKTKPREEQYASTYRVVSVLTVLHQDWLNGKEYKCKVSNKALPAPIEKTISKAKGQPREPQVYTLPPSRCELTKNQVSLSCAVKGFYPSDIAVEWESNGQPENNYKTTPPVLDSDGSFFLVSKLTVDKSRWQQGNVFSCSVMHEALHNHYTQKSLSLSPDYKDDDDK
chain: EPKSSDKTHTCPPCPAPELLGGPSVFLFPPKPKDTLMISRTPEVTCVVVDVSHEDPEVKFNWYVDGVEVHNAKTKPREEQYNSTYRVVSVLTVLHQDWLNGKEYKCKVSNKALPAPIEKTISKAKGQPREPQVCTLPPSRDELTKNQVSLWCLVKGFYPSDIAVEWESNGQPENNYKTTPPVLDSDGSFFLYSKLTVDKSRWQQGNVFSCSVMHEALHNRYTQKSLSLSP
light: DIVMTQSPLSLPVTPGEPASISCRSSQSLVHSNRNTYLHWYQQKPGQAPRLLIYKVSNRFSGVPDRFSGSGSGTDFTLKISRVEAEDVGVYYCGQGTQVPYTFGQGTKLEIKRTVAAPSVFIFPPSDEQLKSGTASVVCLLNNFYPREAKVQWKVDNALQSGNSQESVTEQDSKDSTYSLSSTLTLSKADYEKHKVYACEVTHQGLSSPVTKSFNRGEC
notes: One-arm antibody
[1]
  Relative ECL reaction (to no antigen coating), CD3ε[+]: 10

B2: 154R4B03#4 (antibody, human IgG1, kappa, L234A L235A, N297A)
heavy: QVQLVESGGGLVQPGRSLRLSCAASGFTFSNAWMHWVRQAPGKGLEWVAQIKDKQSQYANYYAPSVKGRFTISRDDSKSSIYLQMNSLKTEDTAVYYCRYVHYQSTSYSFYQGGVDAWGQGTTVTVSSASTKGPSVFPLAPSSKSTSGGTAALGCLVKDYFPEPVTVSWNSGALTSGVHTFPAVLQSSGLYSLSSVVTVPSSSLGTQTYICNVNHKPSNTKVDKKVEPKSCDKTHTCPPCPAPEAAGGPSVFLFPPKPKDTLMISRTPEVTCVVVDVSHEDPEVKFNWYVDGVEVHNAKTKPREEQYASTYRVVSVLTVLHQDWLNGKEYKCKVSNKALPAPIEKTISKAKGQPREPQVYTLPPSRCELTKNQVSLSCAVKGFYPSDIAVEWESNGQPENNYKTTPPVLDSDGSFFLVSKLTVDKSRWQQGNVFSCSVMHEALHNHYTQKSLSLSPDYKDDDDK
chain: B1 chain
light: B1 light
notes: One-arm antibody
[2]
  Relative ECL reaction (to no antigen coating), CD3ε[+]: 20

B3: CE115HA000 V11L/D72A/L78I/D101Q with GGS inserted between Kabat 99 and 100 (antibody)
heavy: QVQLVESGGGLVQPGRSLRLSCAASGFTFSNAWMHWVRQAPGKGLEWVAQIKAKSNNYATYYAESVKGRFTISRADSKNSIYLQMNSLKTEDTAVYYCRYVHYGAGGSYYGVQAWGQGTTVTVSSASTKGPSVFPLAPSSKSTSGGTAALGCLVKDYFPEPVTVSWNSGALTSGVHTFPAVLQSSGLYSLSSVVTVPSSSLGTQTYICNVNHKPSNTKVDKKVEPKSCDKTHTCPPCPAPEAAGGPSVFLFPPKPKDTLMISRTPEVTCVVVDVSHEDPEVKFNWYVDGVEVHNAKTKPREEQYASTYRVVSVLTVLHQDWLNGKEYKCKVSNKALPAPIEKTISKAKGQPREPQVYTLPPSRCELTKNQVSLSCAVKGFYPSDIAVEWESNGQPENNYKTTPPVLDSDGSFFLVSKLTVDKSRWQQGNVFSCSVMHEALHNHYTQKSLSLSPDYKDDDDK
Fc: B1 chain
light: B1 light
notes: one-arm antibody
[3]
  Kd: 63.1 nM

B4: CE115HA000 V11L/D72A/L78I/D101Q, no insertion (antibody, human IgG1, kappa, L234A L235A, N297A, name in Kabat numbering)
heavy: QVQLVESGGGLVQPGRSLRLSCAASGFTFSNAWMHWVRQAPGKGLEWVAQIKAKSNNYATYYAESVKGRFTISRADSKNSIYLQMNSLKTEDTAVYYCRYVHYGAYYGVQAWGQGTTVTVSSASTKGPSVFPLAPSSKSTSGGTAALGCLVKDYFPEPVTVSWNSGALTSGVHTFPAVLQSSGLYSLSSVVTVPSSSLGTQTYICNVNHKPSNTKVDKKVEPKSCDKTHTCPPCPAPEAAGGPSVFLFPPKPKDTLMISRTPEVTCVVVDVSHEDPEVKFNWYVDGVEVHNAKTKPREEQYASTYRVVSVLTVLHQDWLNGKEYKCKVSNKALPAPIEKTISKAKGQPREPQVYTLPPSRCELTKNQVSLSCAVKGFYPSDIAVEWESNGQPENNYKTTPPVLDSDGSFFLVSKLTVDKSRWQQGNVFSCSVMHEALHNHYTQKSLSLSPDYKDDDDK
chain: B1 chain
light: B1 light
[3]
  Kd: 6.96 nM

B5: 154R4B03#1 (antibody, human IgG1, kappa, L234A L235A, N297A)
heavy: B2 heavy with S79N
chain: B1 chain
light: B1 light
notes: One-arm antibody
[2]
  Relative ECL reaction (to no antigen coating), CD3ε[+]: 18

B6: IGAR6(2)B02 (antibody, human IgG1, kappa, L234A L235A, N297A)
heavy: QVQLVESGGGLVQPGRSLRLSCAASGFTFSNAWMHWVRQAPGKGLEWVAQIKDKGQQYAAYYAPSVKGRFTISRDDSKNSIYLQMNSLKTEDTAVYYCRYVHYQTYSDGSFYFGVDAWGQGTTVTVSSASTKGPSVFPLAPSSKSTSGGTAALGCLVKDYFPEPVTVSWNSGALTSGVHTFPAVLQSSGLYSLSSVVTVPSSSLGTQTYICNVNHKPSNTKVDKKVEPKSCDKTHTCPPCPAPEAAGGPSVFLFPPKPKDTLMISRTPEVTCVVVDVSHEDPEVKFNWYVDGVEVHNAKTKPREEQYASTYRVVSVLTVLHQDWLNGKEYKCKVSNKALPAPIEKTISKAKGQPREPQVYTLPPSRCELTKNQVSLSCAVKGFYPSDIAVEWESNGQPENNYKTTPPVLDSDGSFFLVSKLTVDKSRWQQGNVFSCSVMHEALHNHYTQKSLSLSPDYKDDDDK
chain: B1 chain
light: B1 light
notes: One-arm antibody; also called IGA6 (2) B02; IGAR6(2)B02#1
[4]
  Value as compared with antigen-free well: 910 fold
[5]
  Amount of binding to integrin αvβ3 attenuated by CD3: 1 fold
[6]
  Value as compared with antigen-free well: 1 fold
[7]
  Value as compared with integrin αvβ3-free well: 0.8 fold
[8]
  Value as compared with integrin αvβ3-free well: 0.8 fold
[9]
  Value as compared with antigen-free well: 15.9 fold
[10]
  Amount of binding to hIgA attenuated by CD3: 23.4 fold
[11]
  Amount of binding to hIgA attenuated by integrin αvβ3: 1 fold
[12]
  Value as compared with antigen-free well: 20 fold
[13]
  Value as compared with antigen-free well: 15.6 fold

B7: 154R5F08#3 (antibody, human IgG1, kappa, L234A L235A, N297A)
heavy: B1 heavy with R54K, N57Q, N59A, P64E, F70Y, S105T, S109A, G110L, S111P, S112A
chain: B1 chain
light: B1 light
notes: One-arm antibody
[1]
  Relative ECL reaction (to no antigen coating), CD3ε[+]: 10

B8: 154R5F08#1 (antibody, human IgG1, kappa, L234A L235A, N297A)
heavy: B1 heavy with R54K, N57Q, N59A, P64E, S105T, S109A, G110L, S111P, S112A
chain: B1 chain
light: B1 light
notes: One-arm antibody
[1]
  Relative ECL reaction (to no antigen coating), CD3ε[+]: 13

B9: 154R5A02#2 (antibody, human IgG1, kappa, L234A L235A, N297A)
heavy: B1 heavy with V101A
chain: B1 chain
light: B1 light
notes: One-arm antibody
[1]
  Relative ECL reaction (to no antigen coating), CD3ε[+]: 106

B10: CE115HA000 / GLS3000 one-arm antibody (antibody, human IgG1, kappa, L234A L235A, N297A)
heavy: B4 heavy with L11V, A75D, I81L, Q110D
chain: B1 chain
light: B1 light
notes: one-arm antibody
[3]
  Kd: 110 nM

B11: 154R5E11#3 (antibody, human IgG1, kappa, L234A L235A, N297A)
heavy: B1 heavy with N59A, T60A, P64E, S109A, G110S, S111F, S112Y, T123A
chain: B1 chain
light: B1 light
notes: One-arm antibody
[1]
  Relative ECL reaction (to no antigen coating), CD3ε[+]: 1
